{
  "source": "paper PMC11980541",
  "about": "“3D meshwork architecture of the outer coat protein CotE: implications for bacterial endospore sporulation and germination” (mBio, 2025)",
  "key": {"[1]": {"biological_target": "CotE (outer coat protein CotE)", "settings": "PBS pH 7.2, 25 °C; 100 µM protein in cell, 1 mM DPA in syringe; C-terminal His-tagged trimeric mutant"}, "[2]": {"biological_target": "W65E variant CotE protein, C-terminal His-tagged (Bacillus cereus)", "assay": "SEC-MALS; Superdex 75 Increase 10/300 GL, 2 mg/mL protein, 20 mM Tris pH 8.0"}, "[3]": {"biological_target": "wild-type CotE protein from Bacillus cereus (Bacillus cereus)", "assay": "SEC; Superdex 200 Increase 10/300 GL, 20 mM Tris-HCl pH 8.0, no CaCl2; CotE 5 mg/mL; apparent molecular weight from a calibration curve"}, "[4]": {"biological_target": "wild-type CotE protein from Bacillus cereus (Bacillus cereus)", "assay": "SEC; Superdex 200 Increase 10/300 GL, 20 mM Tris-HCl pH 8.0 with 5 mM CaCl2; CotE 5 mg/mL; apparent molecular weight from a calibration curve"}, "[5]": {"biological_target": "wild-type CotE protein from Bacillus cereus (Bacillus cereus)", "assay": "cryo-EM structure; CotE 2 mg/mL with 5 mM CaCl2 (meshwork); C3 map of the trimer unit at 6.55 Å and C2 map of two joined trimers at 6.86 Å; AlphaFold2 trimer models fitted"}},
  "data": [
    {"molecule": "O=C(O)c1cccc(C(=O)O)n1", "note": "[DPA, dipicolinic acid]", "values": [
      {"measurement": "Kd", "setting": "[1]", "value": 6.3, "unit": "µM"}
    ]},
    {"molecule": "W65E variant CotE protein, C-terminal His-tagged (natural protein)", "values": [
      {"measurement": "stoichiometry N", "setting": "[2]", "value": 3}
    ]},
    {"molecule": "wild-type CotE protein from Bacillus cereus (natural protein)", "values": [
      {"measurement": "stoichiometry N", "setting": "[3]", "value": 12},
      {"measurement": "stoichiometry N", "setting": "[4]", "value": "> 100"},
      {"measurement": "stoichiometry N", "setting": "[5]", "value": 3}
    ]}
  ]
}
